Consider one molecule from PMC4282956 (Journal of immunology (Baltimore, Md. : 1950), 2014).

The target of this assay is HLA-B*57:01.L82R/LF9 (human | ). Kind of assay: SPR. On the technique in general: SPR reads the build-up and loss of mass on a sensor chip optically.

B1: Soluble KIR3DL1*001 (receptor)
chain: HMGGQDKPFLSAWPSAVVPRGGHVTLRCHYRHRFNNFMLYKEDRIHIPIFHGRIFQESFNMSPVTTAHAGNYTCRGSHPHSPTGWSAPSNPVVIMVTGNHRKPSLLAHPGPLVKSGERVILQCWSDIMFEHFFLHKEGISKDPSRLVGQIHDGVSKANFSIGPMMLALAGTYRCYGSVTHTPYQLSAPSDPLDIVVTGPYEKPSLSAQPGPKVQAGESVTLSCSSRSSYDMYHLSREGGAHERRLPAVRKVNRTFQADFPLGPATHGGTYRCFGSFRHSPYEWSDPSDPLLVSVTGNPS
A word on the Kd: it is a measure of binding affinity in units of concentration. Read a high Kd as lower affinity. B1: the Kd stood at 35.5 ± 8.34 µM.
